Consider three proteins from the PETadex activity labels (doi:10.1016/j.jhazmat.2023.131574).

First the molecules themselves.
B1: unnamed (protein)
chain: MSNGYSACPAPYDHRGMRKHASLLAALPVLLAACGTTTSTLTTPAVTPQTLSGAATNPYERGPAPTTALLEAARGPYATASTTVPRSSVSDFGGATIYYPTSTADGTFGGVAISPGYTGTQASVAWLGPRLASHGFVVIVIDTLSRYDYPSSRGDQLRAALRYLTTSSAVRTRVDATRLAVMGHSMGGGGALEAAKDNPALKAAIPLTPWNTDKSWPELTTPTLIFGAQNDSVAPVSSHAIPFYTSLASTLPKAYLELRGASHGAPTSTNTTIAKYAVAWLKRFEDADRRYDPFLCPTPAVSTLLSDARSTCPFN
B2: unnamed (protein)
chain: B1 chain with E285D, D286A, A287D, D288A
B3: unnamed (protein)
chain: MDGVLWRVRTAALMAALLALAAWALVWASPSVEAQSNPYQRGPNPTRSALTADGPFSVATYTVSRLSVSGFGGGVIYYPTGTSLTFGGIAMSPGYTADASSLAWLGRRLASHGFVVLVINTNSRFDGPDSRASQLSAALNYLRTSSPSAVRARLDANRLAVAGHSMGGGGTLRIAEQNPSLKAAVPLTPWHTDKTFNTSVPVLIVGAEADTVAPVSQHAIPFYQNLPSTTPKVYVELCNASHIAPNSNNAAISVYTISWMKLWVDNDTRYRQFLCNVNDPALCDFRTNNRHCQ

Residue numbers refer to the chain shown, from its start.

Substrate in one series: p-NP-C10
Assay: not given
As to conditions: 50 °C.
Take B1: the Michaelis constant (Km) (in general, the concentration of substrate that gives half-maximal velocity) is 930 µM; the turnover number (kcat) – broadly, the number of substrate molecules converted per active site and unit of time at saturation – worked out at 2.47 s⁻¹; the specificity constant (kcat/Km) (usually the turnover number divided by the Michaelis constant) stood at 2660 M⁻¹ s⁻¹.

Substrate in the next series: p-NP-C2
Assay: not given
As to conditions: 50 °C.
Take B1: the Michaelis-Menten constant (Km) worked out at 900 µM, the turnover number (kcat) was 27.5 s⁻¹ and the kcat/Km worked out at 30600 M⁻¹ s⁻¹.

Substrate in a further series: p-NP-C4
Assay: not given
The following applies: 50 °C.
In the case of B1, the Michaelis-Menten constant (Km) stood at 190 µM, the turnover number (kcat) turned out to be 30.8 s⁻¹ and the specificity constant (kcat/Km) came to 162000 M⁻¹ s⁻¹.

Substrate in another series: p-NP-C8
Assay: not given
The following applies: 50 °C.
As to B1, the Km worked out at 1290 µM, the catalytic constant (kcat) worked out at 11.3 s⁻¹ and the catalytic efficiency (kcat/Km) is 8780 M⁻¹ s⁻¹.

Substrate in a further series: PCL; PBS; PHA; PLA; PUR
Briefly: Proxy for plastic degradation [Weight/mass loss]. As to conditions: pH 7; 24 h.
Consider B2, for which the “Proxy for plastic degradation” value stood at 79%.

Substrate in the next series: p-NP-C10
Assay: not given
As to conditions: 60 °C.
Take B3: the Km amounted to 2680 µM, the kcat was 8.11 s⁻¹ and the kcat/Km amounted to 3030 M⁻¹ s⁻¹.

Substrate in another series: p-NP-C2
Assay: not given
The following applies: 60 °C.
For the protein B3, the Km came out at 7310 µM, the turnover number (kcat) stood at 159 s⁻¹ and the kcat/Km is 21800 M⁻¹ s⁻¹.

Substrate in another series: p-NP-C4
Assay: not given
The following applies: 60 °C.
Turning to B3, the Km turned out to be 760 µM, the kcat amounted to 137 s⁻¹ and the kcat/Km was 180000 M⁻¹ s⁻¹.

Substrate in a further series: p-NP-C8
Assay: not given
As to conditions: 60 °C.
For the protein B3, the Michaelis constant (Km) is 7440 µM, the kcat was 107 s⁻¹ and the kcat/Km was determined as 14300 M⁻¹ s⁻¹.
